Assay results taken from the Human Domainome abundance scans (Beltran et al. 2025).
± gives the uncertainty stated by the source.

B1: Zinc finger MYM-type protein 6, residues 427 to 504; numbered along this chain, O95789 (parent)
chain: KLKCQHCNHLFATKPELLFYKGKMFLFCGKNCSDEYKKKNKVVAMCDYCKLQKIIKETVRFSGVDKPFCSEVCKFLSA

Variants of: B1
Test: abundance fitness (aPCA) (normalised: wild type 0, dead -1); higher = more abundant; growth selection in yeast, the domain comes from the species named
Conditions: Homo sapiens

| Variant | abundance fitness |
| --- | --- |
| KLKCQHCNHLFATKPELLFYKGKMFLFCGKNCSDEYKKKNKVVAMCDYCKLQKIIKETVRFSGVDKPFCSENCKFLSA [V72N] | 0.64 ± 0.15 |
| KLKCQHCNHLFATKPELLFYKGKMFLFCGKNCSDEYKKKNKVVAMCDYCKLQKIIKETVRFSGVDKPFCYEVCKFLSA [S70Y] | -0.673 ± 0.48 |
| KLKCQHCNHLFATKPELLFYKGKMFLFCGKNCSDEYKKANKVVAMCDYCKLQKIIKETVRFSGVDKPFCSEVCKFLSA [K39A] | 0.029 ± 0.03 |
| KLKCQHCNHLFATKPELLFYKGKMFLFCGINCSDEYKKKNKVVAMCDYCKLQKIIKETVRFSGVDKPFCSEVCKFLSA [K30I] | 0.021 ± 0.11 |
| KLKCQHCNHLFATKPELLFYKGKMFLFCGKNCSDEYKGKNKVVAMCDYCKLQKIIKETVRFSGVDKPFCSEVCKFLSA [K38G] | -0.026 ± 0.027 |
| KLKCQHCNHLFATKPELLFYKGKMFLFCGKNCSDEYKKKNKVVAMCDYCKLQKIIKETVRFSVVDKPFCSEVCKFLSA [G63V] | -0.713 ± 0.2 |
| KLKCQHCNPLFATKPELLFYKGKMFLFCGKNCSDEYKKKNKVVAMCDYCKLQKIIKETVRFSGVDKPFCSEVCKFLSA [H9P] | -0.69 ± 0.07 |
| KLKCQHCNHLFATKPELLFYKGKMFLFCGKNCSAEYKKKNKVVAMCDYCKLQKIIKETVRFSGVDKPFCSEVCKFLSA [D34A] | -0.037 ± 0.029 |
| KLKCQHCNHLFATKPELLFYKGKMFLFCGKNCSDEYKKKNKVVALCDYCKLQKIIKETVRFSGVDKPFCSEVCKFLSA [M45L] | -0.671 ± 0.18 |
| KLKCQHCNHLFATKPELLFYKGKMFLFCGKNCSDEYKKKNKVVAMCDYCKLQKIIKETVRFGGVDKPFCSEVCKFLSA [S62G] | 0.327 ± 0.07 |
| KLKCSHCNHLFATKPELLFYKGKMFLFCGKNCSDEYKKKNKVVAMCDYCKLQKIIKETVRFSGVDKPFCSEVCKFLSA [Q5S] | -0.248 ± 0.053 |
| KLKCQHCNHLFATKPELLFYKGNMFLFCGKNCSDEYKKKNKVVAMCDYCKLQKIIKETVRFSGVDKPFCSEVCKFLSA [K23N] | -0.001 ± 0.096 |
| KLKCQHCNHLSATKPELLFYKGKMFLFCGKNCSDEYKKKNKVVAMCDYCKLQKIIKETVRFSGVDKPFCSEVCKFLSA [F11S] | -0.094 ± 0.043 |
| KLKCQHCNHLGATKPELLFYKGKMFLFCGKNCSDEYKKKNKVVAMCDYCKLQKIIKETVRFSGVDKPFCSEVCKFLSA [F11G] | -0.171 ± 0.029 |
| KLKCQHCNHLFATKPELLFYKGKMFLFWGKNCSDEYKKKNKVVAMCDYCKLQKIIKETVRFSGVDKPFCSEVCKFLSA [C28W] | -1 ± 0.082 |
| KLKCQHCNHLFATKPELLFDKGKMFLFCGKNCSDEYKKKNKVVAMCDYCKLQKIIKETVRFSGVDKPFCSEVCKFLSA [Y20D] | -0.033 ± 0.047 |
| KLVCQHCNHLFATKPELLFYKGKMFLFCGKNCSDEYKKKNKVVAMCDYCKLQKIIKETVRFSGVDKPFCSEVCKFLSA [K3V] | -0.138 ± 0.034 |
| KLKCQHCNHLFATKPELLFYKGKMCLFCGKNCSDEYKKKNKVVAMCDYCKLQKIIKETVRFSGVDKPFCSEVCKFLSA [F25C] | -0.004 ± 0.051 |

| Variant | abundance fitness |
| --- | --- |
| KLKCQHCNHLFATKPELLFYKGKMFLFCGKNCSDEYKKKNKVVAMCDYCKLQKIIVETVRFSGVDKPFCSEVCKFLSA [K56V] | -0.071 ± 0.092 |
| KLKCQHCNHLFATKPELLFYKGKMFLFCGKNCSDEYKKKNKVVAMCDYCKLQKIIKETVRFSGVDKPFVSEVCKFLSA [C69V] | -1.03 ± 0.28 |
| KLKCQHCLHLFATKPELLFYKGKMFLFCGKNCSDEYKKKNKVVAMCDYCKLQKIIKETVRFSGVDKPFCSEVCKFLSA [N8L] | -0.015 ± 0.035 |
| KLKCQHCAHLFATKPELLFYKGKMFLFCGKNCSDEYKKKNKVVAMCDYCKLQKIIKETVRFSGVDKPFCSEVCKFLSA [N8A] | 0.013 ± 0.032 |
| KLKCQHCNHLFATKPELLFYKGKMFLFCGKNCSDEYKKKNKVVAMCDYCKLQKIIKETVRFSGVDKPFCSEVCKTLSA [F75T] | 0.557 ± 0.096 |
| KLKCQHCNHLFATKPELLFYKGKMFLFCGKNCWDEYKKKNKVVAMCDYCKLQKIIKETVRFSGVDKPFCSEVCKFLSA [S33W] | -0.114 ± 0.043 |
| KLKCQHCNHLFATKPELLFYKGKMFLFCGKNCEDEYKKKNKVVAMCDYCKLQKIIKETVRFSGVDKPFCSEVCKFLSA [S33E] | -0.025 ± 0.039 |
| KLKCQHCNHLFATKPELLFYKGKMFLFCGKNCSDEYKKKNKVVAMGDYCKLQKIIKETVRFSGVDKPFCSEVCKFLSA [C46G] | -0.629 ± 0.094 |
| KLKCQHCNHLFATKPELLFYKGKMFLFCGKNCSDEYKKKNKVVAMCDYCKLQKIIKETVRFSGVDKPFCSEVCKFPSA [L76P] | -0.5 ± 0.35 |
| KLKCQHCNHLFATKEELLFYKGKMFLFCGKNCSDEYKKKNKVVAMCDYCKLQKIIKETVRFSGVDKPFCSEVCKFLSA [P15E] | -0.083 ± 0.043 |
| KLKCQHCNHLFATKSELLFYKGKMFLFCGKNCSDEYKKKNKVVAMCDYCKLQKIIKETVRFSGVDKPFCSEVCKFLSA [P15S] | -0.119 ± 0.05 |
| KLKCQHCNHLFATKPELLFYKGKMFLFCGKNCSDEYKKKNKVVAMCDYCKLQKIIKETVRFSGVDKPFCSQVCKFLSA [E71Q] | -0.194 ± 0.23 |
| KLKCQHCNHLFATKPELLFYKWKMFLFCGKNCSDEYKKKNKVVAMCDYCKLQKIIKETVRFSGVDKPFCSEVCKFLSA [G22W] | -0.226 ± 0.049 |
| KLKCQHVNHLFATKPELLFYKGKMFLFCGKNCSDEYKKKNKVVAMCDYCKLQKIIKETVRFSGVDKPFCSEVCKFLSA [C7V] | -1.11 ± 0.084 |
| KLKCQHCNHLFATKPELLFYKGKMFLFCGKNCSDEYKKKNKVVAMCDYCKLQKIIKETVRFSGVDKPFCSEVCLFLSA [K74L] | -0.594 ± 0.15 |
| KLKCQHCNHTFATKPELLFYKGKMFLFCGKNCSDEYKKKNKVVAMCDYCKLQKIIKETVRFSGVDKPFCSEVCKFLSA [L10T] | -0.085 ± 0.055 |
| KLKCQHCNHLFATPPELLFYKGKMFLFCGKNCSDEYKKKNKVVAMCDYCKLQKIIKETVRFSGVDKPFCSEVCKFLSA [K14P] | -0.182 ± 0.043 |
